Test results: a protein production outcome set (Wang et al. 2014)

test: label from the status in PepcDB records

Sequence | protein production
MSINIISIVSIIIWILLITELIKPSKEQNGRKIVTLVTAGSASTLILTVSFIQNIPFWN | failed
MSINLQLETPRLLLREFQNSDKVAFAAYRSDPGTAKYQSWDTPYSEAQAEAFIESLQHLTSSILGEWYQLAIELKSTRQIIGDCAFCILAEDGKQGEIGFTLARKYQGNGYGTEAVIFLLNYLFNHLNLHRVRANCDPENLASIKLLERVGMRLEGRFIKSLWFKNNWVDEMWFAILQDEFTAVNV | failed
MSINLRSSGCSSPISATLERRLDSEVQTRANNVSFEQTKEKIRKMLEKVELSVSAYDTSWVAMVPSPSSQNAPLFPQCVKWLLDNQHEDGSWGLDNHDHQSLKKDVLSSTLASILALKKWGIGERQINKGLQFIELNSALVTDETIQKPTGFDIIFPGMIKYARDLNLTIPLGSEVVDDMIRKRDLDLKCDSEKFSKGREAYLAYVLEGTRNLKDWDLIVKYQRKNGSLFDSPATTAAAFTQFGNDGCLRYLCSLLQKFEAAVPSVYPFDQYARLSIIVTLESLGIDRDFKTEIKSILDETYRYWLRGDEEICLDLATCALAFRLLLAHGYDVSYDPLKPFAEESGFSDTLEGYVKNTFSVLELFKAAQSYPHESALKKQCCWTKQYLEMELSSWVKTSVRDKYLKKEVEDALAFPSYASLERSDHRRKILNGSAVENTRVTKTSYRLHNICTSDILKLAVDDFNFCQSIHREEMERLDRWIVENRLQELKFARQKLAYCYFSGAATLFSPELSDARISWAKGGVLTTVVDDFFDVGGSKEELENLIHLVEKWDLNGVPEYSSEHVEIIFSVLRDTILETGDKAFTYQGRNVTHHIVKIWLDLLKSMLREAEWSSDKSTPSLEDYMENAYISFALGPIVLPATYLIGPPLPEKTVDSHQYNQLYKLVSTMGRLLNDIQGFKRESAEGKLNAVSLHMKHERDNRSKEVIIESMKGLAERKREELHKLVLEEKGSVVPRECKEAFLKMSKVLNLFYRKDDGFTSNDLMSLVKSVIYEPVSLQEESLT | failed
MSIPNHVSTTEVVLLELEILLTIISIGAWGGFVSYLLRKDKTEYNSSHESIKYCLTQIVISCFTSFLLSAIAIEKECSFNIVLLAAGLGGVFASPILKILGRRIKKIIEGNNSD | failed
MSIPTDVVSLQIMAQVYQKKGLQSIFKKTVESLVEHVPYIDWAGIYMYDQLDYKLVAASNFEEDLRWDCNGELKFPIKNNEDKEVGMLIVRTLQPIAFDVTDVSTLETIATAIGQESYAN | failed
MSIRILPENEIKPSASAFEIPPLLFANPKNLYTRRAKRLRELAKNNPLRDYLEFAAHLVDIQLTLLETAPIGNYAEKLTAYLTENQGQKPLNKQQFARDEKWLELLLALIKQCKPYATGAILTTLEFLEKASYAELNNLADHLLNERYEQVSPDQSVFIWLALSLYWTQLAQQLPRHTQAEIGERHTCPVCGSAPITSVIHLDKTQGLRYLHCALCESEWNMTRAQCSNCDESGDLNYWSFDTVEAPIKAESCGDCHSYLKVLYQEKDPYVEPLADDLASLMLDIEMEQKGFVRSGLNPFLFSIE | not failed
MSIRLRKTVMSVLLGALLAGNLLPAQADTQDRLPDIGTTAGGTLSINQELAMGDFYVRQLRAGAPLINDPLLSDYINQLGNRLVKQADSVRTPFHFYLIRNDDINAFAFFGGNVVLHSALFRYADSESELASVLAHEISHVTQRHLARSMESQQRSAPLTWVGALGSILLAMANPQLGMAALSGTLAGAQQGMITFTQSNEQEADRIGIQVLQRAGFDPQAMPNFLQKLADQSRYASRPPEMLLTHPLPESRLSDARNRANQMRPTPVQSSQDFLFAKIRTFGMYGSPDRPLNDDLLVQWEKGNVREQLAAKYGRAIQLYQAKKYDEARNVLQPLLSSAPDNPWFLDMMTDIDLGQNRAAQAIARLQNVTGMQANPVLQLNLANAYVEGKQPAAAGKILYRYTYAHPDDPNGWDLLAQTAAAQGQRAEELAARAESLALNGQLDQSIRLLSNASSLVKLGSLEQARYDARIDQLRQLQQRFRQYQKS | failed
MSITATHDTSSKGRHALPALALLLLMTLSGCAARDMGDGTSPSLMERHATGKSLAPDAPGTPQRQGTPAAEAEAHLQRGLAYLAQDRPELAFEHFSRAASLAPEMVEPRLQRARLLVRRGMPNEAAADIEAVLAASPQHARAWELAGMVAFDRGLLDEAEADFTRAITLDPDLASCYAHLGAVHDYKGRPDLARDVYAAALVRFPQSGELHNNLGVAFSMLGDDASALHHFHEAVVLGASSERSWNNMGLALCRLGRFDEAFEAFRNAGGEAAAHNNLGYFFLVNGDASLAVQHLQRAVELEPRYYVRAAENLKRARLAARFAAGGVPVPAAGPQTGGIAGTPVNKAGVLPPATGKGPGTRTTGAGERVIQ | failed
MSITRRVRLSVDTCCYEAEIAGILRPQLLKGRMSVREEFDAWAAEGKDRGMEDRHWHTAKHVLARMPVEPGDTVLDLGTGSGYALRALRDTNDAGPCYGLDGSPEMLRNAREYTDDDGIGFLRGDFDALPFATDSIDHVFSMEAFYYASDPPHTLEEIARVLRPGGTANIAVNYYEENVHSHEWQEFIDIEMTRWSADEYREAFREAGLAVAAQDTIPDREVEIPPADTFPTDEFETREAMVERYRELGTLLTVGVATE | failed
MSIVSISYNQEEYIREALDGFAAQRTEFPVEVIIADDASTDATPRIIGEYAARYPQLFRPILRQTNIGVHANFKDVLSAARGEYLALCEGDDYWTDPLKLSKQVKYLDRHPETTVCFHPVRVIYEDGAKDSEFPPLSWRRDLSVDALLARNFIQTNSVVYRRQPSYDDIPANVMPIDWYLHVRHAVGGEIAMLPETMAVYRRHAHGIWHSAYTDRRKFWETRGHGMAATLEAMLDLVHGHREREAIVGEVSAWVLREIGKTPGRQGRALLLKSIADHPRMTMLSLQHRWAQTPWRRFKRRLSTELSSLAALAYATRRRALEGRDGGYRETTSPPTGRGRNVRGSHA | failed
MSIVVPAYEEAQSLPELADGVRAACEEAGLSFRLWIIDDGSRDETWEVVRGLCEDDPRVAGVRFRRNYGKSAALAVGFDRVQGRYVATMDADLQDDPDEIPALIDKLEEGGHDLVSGWKKDRKDPLRKTLPSRFFNWVTRLFSGLPLHDFNCGLKVYRRPVVKSIDVYGELHRYIPLLAKWEGYDRVAEKEVQHHPRKYGTTKFGVERFIQGFLDLITVVFLTRYAVRPMHFFGSMGTVAFALGFLVSLWLSFDKLVLGHPIGDRPLLLLGVLLILFGSQMFTTGLLGEMIIRPRMEDPSTYEVAEATGLADEAADVLEG | failed
MSIYKDINIASAKPSLKERKNIKHYALDHLNIDEKNNAPLFKTLLEDAMRVSSKEILLIVGGSSFYLKSILEGLSRMPKLSGEEVVKIEREIATLSNPYIFLKSIDPNMAFKIHPNDTYRTHKALEIFYATCTPPSEYFKANPKKPFEHAISLFALSIEKSALHNNIKRRTKNMLHSGLVEEIKALYTQYPKDSQPFKAIGVKESVLFLEKRLTLKELEEAITSNTMKLAKRQNTFNKTQFNNLYVGSAEEVRHAILKHSKSGIKG | failed
MSKAKAPINTDELKQKYGRVYEIRIEGLEYENGEEAEFVFYFTRPKVSDISRFTKELNSKPDMAMKNLTFSCIVPEQEEELRQAAEEFPGLTFNTASRLMEIVGASAATSLKKL | not failed
MSKDSNKIIEQSREIGISIIMPLYNVEEVILETLESIHEQTFDSYEVLLIDDGSTDKTIEIVTEYIKDKPRFKLYTQPNGGPASARNHGLRLAIGMYICFVDSDDILPNYSLQLMYDGAISTGAKLITGATKRFNSEGEWFIPMHIQYNIAKPGMKTLLKNPELFYSIGPCAKLYHHSLIDGVFFPENIRYGEDQPFVLHALLQAKDIYTVEKVVYYYRLRDGESQSLTQSVDKDPIRILKSVFQIFDYGEEELKKNNTDYELEHHHHHH | failed
MSKENPLKFLGIGSAFNPNYNNTSAYFELEDNLFLIDCGGGIFNSLLSLKLLEKYLHLNVLITHTHPDHIASLGQLILYCYYQLNKKITLIFPQSEIILNLLDYMGIRNDIYILKTPQDFVNYLSKLTVISLEQVHVNELPCFGYLIYLNNVTFYYSGDSKSIPLYILTKFLEGEIDFLFQDTCSENHNHHPHLSIKELSEQIPPSKRKQVYCMHIDEKFDVNLAKNLGFNIPQEIIVERDAK | failed
MSKGTLFDKVWDLHTVGTLPSGLTQLFIGLHLVHEVTSPQAFAMLRERGLKVLFPERTVATVDHIVPTENQARPFVDRLAEEMIQALEQNCQENNITFYNIGSGNQGIVHVIAPELGLTQPGMTIACGDSHTSSHGAFGAIAFGIGTSQVRDVLASQTLSLSKLKVRKIEVNGTLNPGVYAKDVILHIIRTLGVKGGVGYAYEYAGTTFEQMNMEERMTVCNMAIEGGARCGYVNPDQVTYDYLQGRDFAPQGADWEKAVAWWESIKSDADAEYDDVIVFNAADIPPTVTWGITPGQGIGVNQLIPQPEELLEEDRFVAEEAYRYMDLYPGQPIKGTKIDVCFIGSCTNGRLSDLQEAAKIAKGRHVAEGVKAFVVPGSERVKKAAEAEGLDKIFEAAGFEWREPGCSMCLAMNPDKLEGRQISASSSNRNFKGRQGSASGRTLLMSPAMVATAAIQGEVADVRELL | not failed
MSKHQRPRILITGAAGALAQQVIRRLRESCDLVAVDFREQVYLGDDIPSYCIDFNKRVFEDLFRRYEFDGVIHLGRILSSQLTRMRRYNANVLGTQKLLDLSHKYGIRRVIVLSTYHVYGAVAYNPALIDESAPLKSAGLSADLVDSVELENLANIYLWRYPELNITILRPCNIVGPGVRNTMSTLLSSERAPVLAGFSPMMQFIHIDDMADAIVAAWAKPVKGVFNVAPQDWVAYQHALKLCGCKTIPIPSIPPSVPKAIARVLNLRSFPPYLMAFFKYPVVIDGRAFAREFGFEPKRPLKEIFRYYRDNKKPV | failed
MSKIWSKEETLWSFALYGTAVGAGTLFLPIQLGSAGAIVLFITALVAWPLTYWPHKALSQFILSANIAPGTGITGAVNHYYGKKIGNLITGLYFLAFFVVVLIYAVAITNSLAEQVAHRTPMTPGLRALLSLGVVLVLNLIFLMGRQVTIKVMGFLVFPLIACFLFLSLYLIRDWHPEHLTSQMQFSPQTLHQVWISIPVMVFAFSHTPIISTFAIDQQEKHGDLAMGKCKKIMKVAYTIICASVLFFVFSCLLAIPATYIETARDQGVTILSALSMVPGAPGWLAVTGIIVAVVAMSKSFLGTYFGVIEGASEIVKSSLGLLGVRKSRAFNRAMSILLVSAFTFAVCFINPNAISMIYAISGPLIAMILFIMPTLSTWLIPALKPYRSVGNAITLVVGLLCVSVMFFG | failed
MSKKRIIALILAVVIVLGGIIMSSISAVVSSLFSESTTSDTNPFTEKVEKEGNSSKRIAHLTLNGEITEGTGGGLFGGEGYNHEAFLKQLDNVKKDDSIKGVLLTVNTPGGGTYPSDEIYEKIKEIKQKHKKIYVHMDSMAASGGYYISAPADKIYAGPQTMTGSIGVIMSSIDYSGLQKNLGIKQNVIKSGEHKDILSSSREMTSEERDILQSVLDDSFNRFVNIVKDGRDMPESKVRKLADGRIYSAQQAKSNGLIDEIGYEDQTVKALKKDINAKDAEVFEYSTDGGWFSSMYNVKSSISQFTNEIKDVKSIITNDTKTEPMYLYEGLEHHHHHH | failed
MSKLAQIVQKLKKQGIEAAVLSDPVSINYLTGFYSDPHERLMFLFLFADQEPLLFLPELDALRAKSILDISVTGYLDFENPLEKIKTLLPKTNYSKIALEFDNLNVTKFKGLETIFSGQFTNLTPLINRMRLIK | failed
MSKLDLHQMTTQDLVALFAKVTVEQDDALLGNQISRFNRLFGVMAEIADELKARDGDQRTALLSLFEYPNMQVRLQAAKLTLAVAPVKAREQLEAIVSSKWFPQAGDAGMCLDLLDDGTFKPK | not failed
MSKLFPGEVFANTADFDTGIRQLLPRYDEMLEVICRCLPLTSRRILDLGCGTGELSLKILQRCPDAQVIALDYSPRMLKFAQNKIVASGYKERWTGLQADFGDWAINPETLNIGNEFDACVSSLAIHHLYDEMKLQLFQRIAASLTPNGCFWNADPILPESPTLAEIYQAAREEWVSEQGSNFTEVRAKVGDSSPQGYSNPDQLATLDTHLQMLTKSGFTTVAVPWKYYGLAVFGGWVKLEHHHHHH | not failed
